Experimental findings from patent publication US20230121197A1, “ANTIBODIES SPECIFICALLY BINDING THE CARBOXYMETHYLATED CATALYTIC SUBUNIT OF PROTEIN PHOSPHATASE 2A” (Medizinische Universität Wien, priority 2020, published 2023) are described below.

Experiment [1] concerns the target T1, HA-tagged yeast PP2Ac (PPH21) (Saccharomyces cerevisiae, UniProt P23594).
T1 construct: expressed in transfected cells; host or cells: yeast BY4741 (wildtype, ppe1Δ, ppm1Δ)
Put plainly: Western blot of yeast BY4741 strain lysates (wt, ppe1Δ, ppm1Δ, NaOH). The class given is binding. An excerpt:
Yeast strain BY4741 expressing HA-tagged yeast PP2Ac (PPH21) was used as a background. Of note, the 6 C-terminal amino acids of mammalian/human PP2Ac are identical to the yeast PP2A catalytic subunit PPH21. The BY4741 wildtype (WT) strain contained carboxymethylated PP2Ac and non-carboxymethylated PP2Ac. The BY4741 ppe1Δ strain contained high levels of carboxymethylated PP2Ac because the ppe1 gene was deleted. The BY4741 ppm1Δ strain lacked carboxymethylated PP2Ac because the ppm1 gene was deleted. Said yeast strains were further used for the characterization of monoclonal antibodies, i.e. 7C10-C5, as described further below. […]
Yeast cells were grown at 30° C. to exponential growth phase in drop-out complete medium (2.3 g/l Bacto yeast nitrogen base [Difco, 233520], 20 mg/l adenine, 20 mg/l L-arginine, 15 mg/l L-tyrosine, 15 mg/l L-isoleucine, 25 mg/l L-phenylalanine, 50 mg/l L-glutamic acid, 50 mg/l L-aspartic acid, 100 mg/l L-threonine, 200 mg/l L-serine, 75 mg/l L-valine, 75 mg/l L-methionine, 90 mg/l L-lysine, 20 mg/l uracil, 30 mg/l L-histidine, 0.05 M ammoniumsulfate) lacking L-leucine and containing 2% w/v glucose. Yeast cells were collected by centrifugation at 3,500 rpm at 4° C. in a Beckmann GS-6R centrifuge, washed with ice-cold water and the optical density at 600 nm (0D^600) was measured in a Hitachi U-2000 spectrophotometer. […]

For experiment [2], the target named is T2, PP2Ac C-terminal peptide meL309, ac-HVTRRTPDYFL-CH3 (α-carboxymethylated) (human, SMILES …).
T2 construct: also called Y307-meL309; mePP2Ac
T2 peptide: Ac-HVTRRTPDYFL-OMe
Put plainly: SPR (Biacore T200), antibody captured by anti-mouse IgG on CM5 chip, peptide 5-160 nM as analyte, steady state analysis, 25 °C. As to the method:
The differential affinity of anti-carboxymethylated PP2Ac antibodies, 7C10-C5 and 2A10, to carboxymethylated PP2A catalytic subunit versus noncarboxymethylated PP2A catalytic subunit was determined by surface plasmon resonance (SPR) on a Biacore T200 (GE Healthcare) at the Core Facility Biomolecular & Cellular Analysis (University of Natural Resources and Life Sciences Vienna BOKU). The affinity of 7C10-C5 for carboxymethylated and noncarboxymethylated catalytic subunit of PP4 (PP4c), a PP2A-related phosphatase, was also determined.
Series S Sensor Chip CM5 (GE Healthcare, 10296958) Flow cells (e.g. Flow cells 3 and 4 for the data shown in Table 5 and FIG. 32) were coated with 30 μg/mL anti-mouse IgG antibody (in immobilization buffer) using the mouse antibody capture kit (GE Healthcare, BR-1008-38, Lot 10294578) via amine coupling according to the manufacturer's protocol (i.e. https://www.cytivalifesciences. com/en/us/shop/protein-analysis/spr-lab el-free-analysis/capture-reagents/mouse-antibody-capture-kit-p-05986). The immobilisation levels obtained were 11620.2 RU (Flow cell 1), 10836.5 RU (Flow cell 2), 11605.9 RU (Flow cell 3) and 11333.9 RU (Flow cell 4), and thus were within the specifications. […]
SPR experiments were performed with the BiacoreT200 instrument (Cytiva). […] The sensorgrams obtained were analyzed with BiacoreT200 Evaluation Software (version 3.1).

T1 sequence (P23594 whole entry): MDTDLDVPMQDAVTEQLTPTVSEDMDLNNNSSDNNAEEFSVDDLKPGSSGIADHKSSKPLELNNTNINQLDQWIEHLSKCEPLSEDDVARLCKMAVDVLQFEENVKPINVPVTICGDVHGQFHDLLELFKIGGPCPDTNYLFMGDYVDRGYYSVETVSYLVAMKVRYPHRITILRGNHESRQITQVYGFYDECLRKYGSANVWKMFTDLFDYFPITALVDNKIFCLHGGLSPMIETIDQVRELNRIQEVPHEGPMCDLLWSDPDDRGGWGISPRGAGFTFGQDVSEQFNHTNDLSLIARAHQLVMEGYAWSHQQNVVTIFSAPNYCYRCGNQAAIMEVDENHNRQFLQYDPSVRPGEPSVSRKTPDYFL

B1: 7C10-C5: α-carboxymethylation specific mouse monoclonal IgG1 antibody from single clone hybridoma 7C10-C5 (DSM ACC3350) (antibody)
heavy: MYRMQLLSCIALSLALVTNSDVQLQESGPGLVKPSQSLSLTCSVTGYSITSGYYWNWIRQFPGNKLEWMGYISYDGSNNYNPSLKNRISITRDTSKNQFFLKLNSVTTEDTATYYCAGRFAYWGQGTLVTVSAAKTTAPSVYPLAPVCGDTTGSSVTLGCLVKGYFPEPVTLTWNSGSLSSGVHTFPAVLQSDLYTLSSSVTVTSSTWPSQSITCNVAHPASSTKVDKKIEPRGPTIKPCPPCKCPAPNLLGGPSVFIFPPKIKDVLMISLSPIVTCVVVDVSEDDPDVQISWFVNNVEVHTAQTQTHREDYNSTLRVVSALPIQHQDWMSGKEFKCKVNNKDLPAPIERTISKPKGSVRAPQVYVLPPPEEEMTKKQVTLTCMVTDFMPEDIYVEWTNNGKTELNYKNTEPVLDSDGSYFMYSKLRVEKKNWVERNSYSCSVVHEGLHNHHTTKSFSRTPGK
light: MDMRVPAQLLGLLLLWLSGARCDVLMTQTPLSLPVSLGDQASISCRSSQSIVHSNGNTYLEWYLQKPGQSPKLLIYKVSNRFSGVPDRFSGSGSGTDFTLKINRVEAEDLGVYYCFQGSHVPWTFGGGTKLEIKADAAPTVSIFPPSSEQLTSGGASVVCFLNNFYPKDINVKWKIDGSERQNGVLNSWTDQDSKDSTYSMSSTLTLTKDEYERHNSYTCEATHKTSTSPIVKSFNRNEC
modifications: Amino acid sequence of the recombinant 7C10-C5 heavy chain; Amino acid sequence of the recombinant 7C10-C5 light chain
In the case of B1, the “detection of PP2Ac in ppe1Δ (carboxymethylated) versus ppm1Δ / NaOH treated (non-carboxymethylated) lysates” value in experiment [1] is “only detected carboxymethylated PP2Ac”.

B2: 7C10-C5 monoclonal antibody (antibody, V domains shown)
VH: DVQLQESGPGLVKPSQSLSLTCSVTGYSITSGYYWNWIRQFPGNKLEWMGYISYDGSNNYNPSLKNRISITRDTSKNQFFLKLNSVTTEDTATYYCAGRFAYWGQGTLVTVSA
VL: DVLMTQTPLSLPVSLGDQASISCRSSQSIVHSNGNTYLEWYLQKPGQSPKLLIYKVSNRFSGVPDRFSGSGSGTDFTLKINRVEAEDLGVYYCFQGSHVPWTFGGGTKLEIK
notes: Used as hybridoma culture supernatant (ELISA, Western blot, IHC) or at 50 µg/mL (SPR); also called 7C10 X63; clone 7C10-C5
One may read the Kd as the constant that tells how readily two partners part at equilibrium. Read a high Kd as lower affinity. On to B2, for which, in experiment [1], the “detection of PP2Ac in ppe1Δ (carboxymethylated) versus ppm1Δ / NaOH treated (non-carboxymethylated) lysates” value is “detected PP2Ac only in the BY4741 ppe1Δ strain”. Also, binding in experiment [2] was put at a Kd of 11 nM.
